The values below come from patent US20260116958A1 (University of California, published 2026).

Experiment [1] deals with inactive BoNT/G (BoNT/Gi) (Clostridium botulinum) (UniProt Q60393). Put plainly: flow cytometry, scFv on yeast.
Experiment [2] has the same target. Description: flow cytometry, scFv on yeast; against hu6G6 Wt.
In another experiment the target is T1, active BoNT/G holotoxin (Clostridium botulinum, UniProt Q60393 2-1297).
T1 sequence: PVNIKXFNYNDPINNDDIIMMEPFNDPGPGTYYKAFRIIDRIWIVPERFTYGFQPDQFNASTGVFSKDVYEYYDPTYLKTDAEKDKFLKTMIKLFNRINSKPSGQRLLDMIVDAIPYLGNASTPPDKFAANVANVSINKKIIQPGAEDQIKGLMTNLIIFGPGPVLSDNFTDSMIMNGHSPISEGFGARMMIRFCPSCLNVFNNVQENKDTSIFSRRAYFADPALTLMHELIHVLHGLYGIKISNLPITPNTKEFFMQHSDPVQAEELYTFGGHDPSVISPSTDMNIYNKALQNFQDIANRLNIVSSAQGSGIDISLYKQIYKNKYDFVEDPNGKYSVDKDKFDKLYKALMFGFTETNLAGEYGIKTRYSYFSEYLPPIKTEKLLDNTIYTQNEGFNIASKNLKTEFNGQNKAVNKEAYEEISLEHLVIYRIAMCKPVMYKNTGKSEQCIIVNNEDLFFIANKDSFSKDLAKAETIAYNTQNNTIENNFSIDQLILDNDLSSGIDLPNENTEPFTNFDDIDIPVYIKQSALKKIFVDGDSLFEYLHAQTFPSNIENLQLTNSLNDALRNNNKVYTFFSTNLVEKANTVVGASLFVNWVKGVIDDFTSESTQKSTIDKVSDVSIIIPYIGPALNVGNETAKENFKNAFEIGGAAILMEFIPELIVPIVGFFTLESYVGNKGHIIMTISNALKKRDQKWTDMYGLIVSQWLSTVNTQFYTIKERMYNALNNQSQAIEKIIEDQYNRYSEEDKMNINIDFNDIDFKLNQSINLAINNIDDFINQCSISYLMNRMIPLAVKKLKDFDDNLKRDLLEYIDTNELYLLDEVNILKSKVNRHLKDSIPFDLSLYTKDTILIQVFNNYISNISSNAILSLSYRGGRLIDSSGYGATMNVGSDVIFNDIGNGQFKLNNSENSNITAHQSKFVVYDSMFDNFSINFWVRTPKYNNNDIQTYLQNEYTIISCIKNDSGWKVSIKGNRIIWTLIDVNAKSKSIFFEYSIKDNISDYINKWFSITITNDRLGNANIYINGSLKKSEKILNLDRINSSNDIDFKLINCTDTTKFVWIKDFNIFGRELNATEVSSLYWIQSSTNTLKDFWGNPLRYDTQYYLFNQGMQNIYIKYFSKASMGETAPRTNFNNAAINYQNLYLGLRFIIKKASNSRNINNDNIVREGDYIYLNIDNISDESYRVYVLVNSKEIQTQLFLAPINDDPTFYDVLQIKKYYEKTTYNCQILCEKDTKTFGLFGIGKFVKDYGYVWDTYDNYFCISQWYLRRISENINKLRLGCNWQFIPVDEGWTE

For experiment [3], the target named is T2, inactive BoNT/G (BoNT/Gi) (Clostridium botulinum, UniProt Q60393 1-1297).
T2 sequence: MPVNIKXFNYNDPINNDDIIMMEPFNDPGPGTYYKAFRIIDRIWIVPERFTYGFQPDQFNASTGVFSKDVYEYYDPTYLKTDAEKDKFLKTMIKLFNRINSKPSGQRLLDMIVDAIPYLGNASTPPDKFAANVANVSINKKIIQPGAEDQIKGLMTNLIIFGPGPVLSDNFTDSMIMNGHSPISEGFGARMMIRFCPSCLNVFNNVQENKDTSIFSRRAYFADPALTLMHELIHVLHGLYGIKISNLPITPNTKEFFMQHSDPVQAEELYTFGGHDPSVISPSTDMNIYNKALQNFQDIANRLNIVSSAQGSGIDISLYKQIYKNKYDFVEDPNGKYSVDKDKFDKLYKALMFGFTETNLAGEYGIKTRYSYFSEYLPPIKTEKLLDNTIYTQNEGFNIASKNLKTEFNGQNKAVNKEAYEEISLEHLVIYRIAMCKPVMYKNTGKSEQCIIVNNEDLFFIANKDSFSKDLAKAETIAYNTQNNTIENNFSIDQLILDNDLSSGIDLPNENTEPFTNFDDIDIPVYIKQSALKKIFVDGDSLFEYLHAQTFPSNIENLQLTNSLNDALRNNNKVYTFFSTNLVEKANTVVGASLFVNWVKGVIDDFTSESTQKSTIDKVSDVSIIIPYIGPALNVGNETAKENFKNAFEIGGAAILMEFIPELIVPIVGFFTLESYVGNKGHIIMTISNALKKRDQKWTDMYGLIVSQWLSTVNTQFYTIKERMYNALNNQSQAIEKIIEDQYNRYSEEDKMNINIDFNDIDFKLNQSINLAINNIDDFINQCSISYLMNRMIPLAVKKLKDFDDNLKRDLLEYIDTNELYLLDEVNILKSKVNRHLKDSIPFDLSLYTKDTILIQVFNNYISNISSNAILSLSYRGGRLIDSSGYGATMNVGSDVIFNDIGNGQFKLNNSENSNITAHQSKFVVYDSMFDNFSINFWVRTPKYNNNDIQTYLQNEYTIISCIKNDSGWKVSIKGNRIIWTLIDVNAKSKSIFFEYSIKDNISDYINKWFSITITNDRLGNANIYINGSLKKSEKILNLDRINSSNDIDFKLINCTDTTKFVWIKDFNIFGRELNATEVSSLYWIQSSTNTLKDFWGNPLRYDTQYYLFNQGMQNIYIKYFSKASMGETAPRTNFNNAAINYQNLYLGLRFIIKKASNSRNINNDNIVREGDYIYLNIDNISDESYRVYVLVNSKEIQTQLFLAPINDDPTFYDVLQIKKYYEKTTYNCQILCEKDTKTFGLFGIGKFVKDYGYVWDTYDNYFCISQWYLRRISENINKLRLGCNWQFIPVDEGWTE
Put plainly: flow cytometry, scFv on yeast. A general note: Flow cytometry measures light scatter and fluorescence of single cells or particles in a stream.

Changes are numbered by the printed parent chain.

As a reminder, the Kd is a measure of binding affinity in units of concentration. Lower therefore signals tighter binding.

B1: hu6G6 variant A3 scFv (scFv)
scFv: QVQLVQSGAEVKKPGASVKLSCKASGFNIKDTYMHWVRQAPGQGLEWIGRIDPANGNTKYDPKFQGRATITAGTSINTAYLELSRLRSDDTAVYYCASGPNYYGTTWFAYWGQGTTVTVSSVDLKSGGSTSGSGKPGSGEGSSGSARKIVLTQSPSTLSASVGDRVTITCRASHGISNYLAWYQQKPGRAPKLLIYKASTLHIGVPSRFSGSGSGTEFALTISSLQPDDFSTYYCQQYISYLPHTFGQGTRLEIK
On to B1, for which the Kd in experiment [1] worked out at 5.18 nM. In experiment [2], this molecule yielded an Improvement over WT of 4.5 fold.

B2: hu6G6 variant A4 scFv (scFv)
scFv: B1 scFv with A54E, G73Y, T74K, G132D, K148E, I239N
The molecule B2 gave a Kd in experiment [1] of 3.46 nM. The molecule further registered an Improvement over WT in experiment [2] of 6.8 fold.

B3: hu6G6 variant B8 scFv (scFv)
scFv: B1 scFv with K12N, G73Y, I76F, T115S, K148E, I239N
Regarding B3, the Kd in experiment [1] worked out at 3.75 nM. In experiment [2], this molecule showed an Improvement over WT of 6.2 fold.

B4: hu6G6 variant B8.1 scFv (scFv)
scFv: B1 scFv with K12N, G73Y, I76F, K148E, I239N
The molecule B4 registered a Kd in experiment [1] of 5.43 nM. The Improvement over WT in experiment [2] came out at 4.3 fold.

B5: hu6G6 variant A3.1 scFv (scFv)
scFv: B1 scFv with K148E, I239N
For the molecule B5, the Kd in experiment [1] amounted to 6.5 nM. In addition, in experiment [2], the Improvement over WT came out at 3.5 fold.

B6: hu6G6.1 IgG (antibody, V domains shown)
VH: QVQLVQSGAEVKKPGASVKLSCKASGFNIKDTYMHWVRQAPGQGLEWIGRIDPENGNTKYDPKFQGRATITAYKSINTAYLELSRLRSDDTAVYYCASGPNYYGTTWFAYWGQGTTVTVSS
VL: EIVLTQSPSTLSASVGDRVTITCRASHGISNYLAWYQQKPGRAPKLLIYKASTLHIGVPSRFSGSGSGTEFALTISSLQPDDFSTYYCQQYNSYLPHTFGQGTRLEIKR
In turn, B6 came in with a Kd with active BoNT/G holotoxin of 0.476 nM.

B7: Hu6G7.1 scFv (scFv, V domains shown)
VH: QVQLVQSGAEVKKPGASVKVSCKASDYSFTDYNIYWVRQTPGQGLEWIGYIDPYNGGTSYNQKFKGRATLTVDKSISTAYMELSRLRSDDTAVYYCALYGYDPDYIDYWGQGTTLTVSS
VL: DIVLTQSPASMAVSPGQRVTITCSASSSVSYLHWFQQKPGQSPKLWIYSTSNLASGVPARFSGSGSGTDYTLTINPMEAEDTATYYCQQRSSYPYTFGQGTKLEIKR
Turning to B7, the “fold lower affinity than murine 6G7.1” value in experiment [3] was determined as 10 fold.
